Common to all, as to assay: ELISA
The target of assay [1] is hemagglutinin of A/chicken/Yunnan/SD193/2017 (H7N9) (influenza A virus …).
For assay [2], the target named is hemagglutinin of A/pigeon/Shanghai/S1069/2013 (H7N9) (influenza A virus …).
Assay [3] addresses hemagglutinin of A/duck/Guangxi/SDY129/2014 (H7N9) (influenza A virus …).
For assay [4], the target named is hemagglutinin of A/chicken/Guangdong/SD008/2017 (H7N9) (influenza A virus …).

Where a chain is given by its changes, count along the chain named.

B1: 1H9 neutralizing antibody (antibody, V domains shown)
VH: VQLQESGPGLVKPSQSLSLTCTVTGYSITSDYTWNWIRQFPGNKLEWMGYITYSDTTSYNPSLKSRISITRDTSKNQFFLQLNSVTTEDTATYYCARSDGWYGFAYWGQGTLVTVSA
VL: DIQMNQSPSSLSASLGDTITITCHASQNINVWLSWYQQKPGNIPKLLIYKAFDLHTGVPSRFSGSGSGTGFTLTISSLQPEDIATYYCQQGQTYPFTFGGGTKLEIK
One may read the EC50 as the concentration at which the effect is half-maximal. The low end stands for higher potency in that assay, the high end for lower potency in that assay. As to B1, the EC50 stood at 0.195 µg/mL in assay [1], 0.0837 µg/mL in assay [2], 0.0808 µg/mL in assay [3] and 0.0861 µg/mL in assay [4].

B2: 2D7 neutralizing antibody (antibody, V domains shown)
VH: VQLQESGPGLVKPSQSLSLTCTVTGYSITSDYTWNWIRQFPGNKLEWMGYISYSGSTSYNPSLKSRMSITRDTSKNQFLLQLNSVTTADTATYYCTRDGPYWHIDVWGAGTTVTVSS
VL: B1 VL with N28T, V31I, Q38L, F52S, D53N, T85S, T93S, Y94F, F96Y
Consider B2, for which the EC50 in assay [1] is 0.0539 µg/mL; in assay [2] it was 0.0857 µg/mL; in assay [3], 0.0535 µg/mL; in assay [4] it was 0.0561 µg/mL.

The values are drawn from article PMC11784312 (2024).
